# Experimental data published in patent US20250376507A1, “NOVEL TUMOR ANTIGEN-TARGETING ANTICANCER AGENT” (INDUSTRY FOUNDATION OF CHONNAM NATIONAL UNIVERSITY, priority 2022, published 2025).
# Values joined by “and” are separate entries in the source; they are usually repeats but may differ in a detail not shown here. Identical values can stand only once.
# B1: L-ASNase: L-asparaginase, enzyme that hydrolyzes L-asparagine; purchased from Prospec, used as free control (protein)
# chain: LPNITILATGGTIAGGGDSATKSNYTAGKVGVENLVNAVPQLKDIANVKGEQVVNIGSQDMNDDVWLTLAKKINTDCDKTDGFVITHGTDTMEETAYFLDLTVKCDKPVVMVGAMRPSTSMSADGPFNLYNAVVTAADKASANRGVLVVMNDTVLDGRDVTKTNTTDVATFKSVNYGPLGYIHNGKIDYQRTPARKHTSDTPFDVSKLNELPKVGIVYNYANASDLPAKALVDAGYDGIVSAGVGNGNLYKTVFDTLATAAKNGTAVVRSSRVPTGATTQDVEVDDAKYGFVASGTLNPQKARVLLQLALTQTKDPQQIQQIFNQY
# modifications: L-asparaginase
# notes: L-asparaginase, enzyme that hydrolyzes L-asparagine; purchased from Prospec, used as free control
# What was measured:
# [1] = L-ASNase activity analysis (asparaginase activity kit); format: biochemical; details: 25° C.
# Procedure: The L-ASNase enzyme activity of the recombinant proteins was measured with an asparaginase activity analysis kit using an OxiRed probe (Abcam, USA). 1 International unit (IU) was defined as the amount of enzyme generating 1.0 μmol of Asp per minute at 25° C.
# [2] = Thermal stability analysis at 55° C.; format: physicochemical; details: after 180 min
# Procedure: Briefly, 200 μL of PASylated recombinant protein or L-ASNase (1 mg/mL) was incubated in a thermal cycler (Finepcr, Korea) at 55° C. for 30-180 min. The residual enzymatic activity of the proteins was measured using an asparaginase activity analysis kit as described above. The residual activity (%) at each incubation time was calculated relative to the sample activity at time 0.
# [3] = In vivo pharmacokinetic analysis; set-up: species or system BALB/c mice; details: 10 IU intravenous, mouse serum
# Procedure: Six-week-old female BALB/c mice (Orient Company, Korea) were randomly assigned to different treatment groups (n=3) and intravenously injected with 10 IU of PASylated recombinant protein. Then, blood samples were taken from the eyes at the specified time (0-52 h) and left at 4° C. for 40 min. After centrifugation at 12,000 rpm for 20 min, the serum fraction was obtained and stored at −80° C. before further analysis. PASylated recombinant protein in serum was assessed using the ELISA method described above. The amount of serum recombinant protein was converted to enzyme activity.
# CT-26 cells [4] = test: Cell viability (CCK-8) of CT-26 cells; format: cell-based, mouse
# Procedure: CT-26 and MC-38 cells (10^4 cells per well) were seeded into three wells of a 96-well plate and incubated at 37° C. The next day, the culture medium was replaced with 100 μL of fresh medium containing the above concentrations of anticancer agents. After incubation at 37° C. for 4 h, the culture medium was removed and the cells were washed three times with PBS. […] Finally, CCK-8 reagent (10 μL/well) was added for 3 h at 37° C., and the amount of color in each sample was measured at OD450.
# CT-26 cells [5] = test: Flow cytometry for ecto-CRT exposure in L-ASNase-treated CT-26 cells; format: cell-based, mouse; details: 200 IU/mL, 24 h
# Procedure: FIG. 6a is a graph showing the analysis of the cytotoxicity enhanced by CRT3LP and CRT4LP in tumor cells treated with ICD-induced anticancer agents and the viability of tumor cells treated with L-ASNases. CT-26 cells (4×10^4) cultured overnight were treated with L-ASNases (200 IU/mL) in 96-well plates and viability was measured at the indicated times. The viability at each time was calculated relative to time 0. Cells were stained with anti-CRT antibodies.
# FIG. 6b is a graph representing the results of flow cytometry histogram analysis for ecto-CRT. Filled black lines stained with isotype antibodies; red lines stained with anti-CRT antibodies.
molecule,measurement,setting,value
B1,enzymatic activity (specific activity),[1],~7.2 IU/nmol
same,"residual enzymatic activity, of the initial activity",[2],16.4%
same,half-life,[3],1.8 h and 1.79 ± 0.22 h
same,reduction of cell viability in cells pretreated with anticancer agents,"CT-26 cells [4]; 1 IU/mL, 24 h after pretreatment",barely reduced
same,cell viability,"CT-26 cells [4]; 200 IU/mL, 24 h, no anticancer pretreatment",progressive decrease in viability
same,CRT exposure (ecto-CRT),CT-26 cells [5],no significant CRT exposure
